Results as given in the supplement of paper PMC10567573.

B1: FAM189A2 (parent)
chain: PRCDLVDLGEGKICFCCEEFQPAK

Variants of: B1
Test: protein stability index of a GFP-peptide fusion (GPS, HEK-293T) (PSI 1-6); higher = more stable
Settings: c terminus: a fixed tail appended
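Note: lentivirally expressed fusions sorted by FACS into six bins by GFP to DsRed ratio, PSI derived from sequencing read proportions per bin multiplied by bin number.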

Compared with PRCDLVDLGEGKICLCCEEFQPAK [F15L], PRCDLVDLGEGKICVCCEEFQPAK [F15V] is higher in protein stability index: 3.39 for the first, 3.43 for the second.

Going from PRCDLVDLGEGKICPCCEEFQPAK [F15P] to PRCDLVDLGEGKICSCCEEFQPAK [F15S], the protein stability index rises from 3.55 to 4.47.

Compared with PRCDLVDLGEGKICRCCEEFQPAK [F15R], PRCDLVDLGEGKICQCCEEFQPAK [F15Q] is higher in protein stability index: 3.33 for the first, 4.13 for the second.

First: PRCDLVDLGEGKICTCCEEFQPAK [F15T]
Second: PRCDLVDLGEGKICNCCEEFQPAK [F15N]
The protein stability index of the first is lower: 4.07 for the first, 4.66 for the second.

Compared with PRCDLVDLGEGKICMCCEEFQPAK [F15M], PRCDLVDLGEGKICYCCEEFQPAK [F15Y] is higher in protein stability index: 2.8 for the first, 2.81 for the second.

Going from PRCDLVDLGEGKICWCCEEFQPAK [F15W] to PRCDLVDLGEGKICFCCEEGQPAK [F20G], the protein stability index rises from 3.04 to 3.59.

Compared with PRCDLVDLGEGKICFCCEEIQPAK [F20I], PRCDLVDLGEGKICFCCEEHQPAK [F20H] is higher in protein stability index: 3.6 for the first, 4.34 for the second.

Compared with PRCDLVDLGEGKICFCCEEDQPAK [F20D], PRCDLVDLGEGKICFCCEEEQPAK [F20E] is higher in protein stability index: 4.05 for the first, 4.91 for the second.

Going from PRCDLVDLGEGKICFCCEEAQPAK [F20A] to PRCDLVDLGEGKICFCCEELQPAK [F20L], the protein stability index falls from 3.32 to 2.42.

Going from PRCDLVDLGEGKICFCCEEKQPAK [F20K] to PRCDLVDLGEGKICFCCEECQPAK [F20C], the protein stability index falls from 3.89 to 3.15.

First: PRCDLVDLGEGKICFICEEFQPAK [C16I]
Second: PRCDLVDLGEGKICFKCEEFQPAK [C16K]
The protein stability index of the first is lower: 2.09 for the first, 3.76 for the second.

Compared with PRCDLVDLGEGKICFGCEEFQPAK [C16G], PRCDLVDLGEGKICFECEEFQPAK [C16E] is higher in protein stability index: 3.44 for the first, 3.64 for the second.

Compared with PRCDLVDLGEGKICFDCEEFQPAK [C16D], PRCDLVDLGEGKICFTCEEFQPAK [C16T] is lower in protein stability index: 3.88 for the first, 3.05 for the second.

Compared with PRCDLVDLGEGKICFACEEFQPAK [C16A], PRCDLVDLGEGKICFWCEEFQPAK [C16W] is lower in protein stability index: 3.45 for the first, 2.1 for the second.

Going from PRCDLVDLGEGKICFFCEEFQPAK [C16F] to PRCDLVDLGEGKICFYCEEFQPAK [C16Y], the protein stability index falls from 2.66 to 2.22.

First: PRCDLVDLGEGKICFHCEEFQPAK [C16H]
Second: PRCDLVDLGEGKICFRCEEFQPAK [C16R]
The protein stability index of the first is higher: 4.23 for the first, 3.13 for the second.

Compared with PRCDLVDLGEGKICFLCEEFQPAK [C16L], PRCDLVDLGEGKICFMCEEFQPAK [C16M] is higher in protein stability index: 2.71 for the first, 3.07 for the second.

Going from PRCDLVDLGEGKICFPCEEFQPAK [C16P] to PRCDLVDLGEGKICFSCEEFQPAK [C16S], the protein stability index falls from 4.24 to 3.28.

Going from PRCDLVDLGEGKICFNCEEFQPAK [C16N] to PRCDLVDLGEGKICFQCEEFQPAK [C16Q], the protein stability index falls from 3.93 to 3.89.

Compared with PRCDLVDLGEGKICFVCEEFQPAK [C16V], PRCDLVDLGEGKICFCCEPFQPAK [E19P] is higher in protein stability index: 2.85 for the first, 3.04 for the second.

Going from PRCDLVDLGEGKICFCCEIFQPAK [E19I] to PRCDLVDLGEGKICFCCEVFQPAK [E19V], the protein stability index rises from 1.55 to 1.65.

First: PRCDLVDLGEGKICFCCEFFQPAK [E19F]
Second: PRCDLVDLGEGKICFCCEYFQPAK [E19Y]
The protein stability index of the first is lower: 1.78 for the first, 2.03 for the second.

First: PRCDLVDLGEGKICFCCEKFQPAK [E19K]
Second: PRCDLVDLGEGKICFCCETFQPAK [E19T]
The protein stability index of the first is lower: 2.09 for the first, 3.13 for the second.

Going from PRCDLVDLGEGKICFCCEAFQPAK [E19A] to PRCDLVDLGEGKICFCCESFQPAK [E19S], the protein stability index falls from 2.51 to 2.26.

Going from PRCDLVDLGEGKICFCCEQFQPAK [E19Q] to PRCDLVDLGEGKICFCCELFQPAK [E19L], the protein stability index falls from 3.05 to 2.

Compared with PRCDLVDLGEGKICFCCENFQPAK [E19N], PRCDLVDLGEGKICFCCEHFQPAK [E19H] is lower in protein stability index: 3.21 for the first, 2.94 for the second.

Going from PRCDLVDLGEGKICFCCERFQPAK [E19R] to PRCDLVDLGEGKICFCCEGFQPAK [E19G], the protein stability index rises from 2.21 to 2.71.

Compared with PRCDLVDLGEGKICFCCECFQPAK [E19C], PRCDLVDLGEGKICFCCEWFQPAK [E19W] is lower in protein stability index: 3.96 for the first, 2.25 for the second.

Compared with PRCDLVDLGEGKICFCCEDFQPAK [E19D], PRCDLVDLGEGKICFCHEEFQPAK [C17H] is higher in protein stability index: 2.97 for the first, 3.11 for the second.

Compared with PRCDLVDLGEGKICFCREEFQPAK [C17R], PRCDLVDLGEGKICFCQEEFQPAK [C17Q] is lower in protein stability index: 3.28 for the first, 3.12 for the second.

First: PRCDLVDLGEGKICFCSEEFQPAK [C17S]
Second: PRCDLVDLGEGKICFCKEEFQPAK [C17K]
The protein stability index of the first is lower: 3.5 for the first, 3.64 for the second.

First: PRCDLVDLGEGKICFCNEEFQPAK [C17N]
Second: PRCDLVDLGEGKICFCAEEFQPAK [C17A]
The protein stability index of the first is higher: 3.96 for the first, 3.34 for the second.

Going from PRCDLVDLGEGKICFCFEEFQPAK [C17F] to PRCDLVDLGEGKICFCDEEFQPAK [C17D], the protein stability index rises from 2.37 to 4.29.

Going from PRCDLVDLGEGKICFCGEEFQPAK [C17G] to PRCDLVDLGEGKICFCEEEFQPAK [C17E], the protein stability index rises from 3.92 to 4.67.

Compared with PRCDLVDLGEGKICFCPEEFQPAK [C17P], PRCDLVDLGEGKICFCMEEFQPAK [C17M] is lower in protein stability index: 3.27 for the first, 2.66 for the second.

Going from PRCDLVDLGEGKICFCIEEFQPAK [C17I] to PRCDLVDLGEGKICFCLEEFQPAK [C17L], the protein stability index rises from 2.05 to 2.15.

Compared with PRCDLVDLGEGKICFCTEEFQPAK [C17T], PRCDLVDLGEGKICFCYEEFQPAK [C17Y] is lower in protein stability index: 4.05 for the first, 2.66 for the second.

Going from PRCDLVDLGEGKICFCWEEFQPAK [C17W] to PRCDLVDLGEGKICFCCIEFQPAK [E18I], the protein stability index rises from 2.51 to 2.63.

Compared with PRCDLVDLGEGKICFCCWEFQPAK [E18W], PRCDLVDLGEGKICFCCDEFQPAK [E18D] is higher in protein stability index: 2.01 for the first, 2.56 for the second.

Compared with PRCDLVDLGEGKICFCCMEFQPAK [E18M], PRCDLVDLGEGKICFCCSEFQPAK [E18S] is higher in protein stability index: 2.07 for the first, 2.55 for the second.

Going from PRCDLVDLGEGKICFCCTEFQPAK [E18T] to PRCDLVDLGEGKICFCCHEFQPAK [E18H], the protein stability index rises from 2.45 to 2.85.

First: PRCDLVDLGEGKICFCCKEFQPAK [E18K]
Second: PRCDLVDLGEGKICFCCNEFQPAK [E18N]
The protein stability index of the first is lower: 2.77 for the first, 2.78 for the second.

Going from PRCDLVDLGEGKICFCCREFQPAK [E18R] to PRCDLVDLGEGKICFCCFEFQPAK [E18F], the protein stability index rises from 2.28 to 2.29.

Compared with PRCDLVDLGEGKICFCCVEFQPAK [E18V], PRCDLVDLGEGKICFCCPEFQPAK [E18P] is higher in protein stability index: 2.53 for the first, 2.98 for the second.

Going from PRCDLVDLGEGKICFCCLEFQPAK [E18L] to PRCDLVDLGEGKICFCCCEFQPAK [E18C], the protein stability index rises from 1.71 to 2.62.

PRCDLVDLGEGKICFCCGEFQPAK [E18G] and PRCDLVDLGEGKICFCCQEFQPAK [E18Q] are the same in protein stability index: 2.64 for the first, 2.64 for the second.

Going from PRCDLVDLGEGKICFCCAEFQPAK [E18A] to PRCDLVDLGEGKICFCCYEFQPAK [E18Y], the protein stability index falls from 3.34 to 2.07.
